Common to all, as to experiment: SPR
The target in one experiment is Phl p 7 wild-type (Timothy grass, UniProt O82040).
The target in experiment [1] is Bet v 4 (UniProt Q39419).
For experiment [2], the target named is T1, Ole e 3 (Olea europaea (common olive), UniProt O81092).
Experiment [3] deals with Bet v 4 (UniProt Q39419). The source holds these as a separate data set.
Experiment [4] addresses T1, Ole e 3. This is another data set of the same source.

Where two headings read alike, the source gives them in different places.

Sequence of Bet v 4 (Q39419 whole entry): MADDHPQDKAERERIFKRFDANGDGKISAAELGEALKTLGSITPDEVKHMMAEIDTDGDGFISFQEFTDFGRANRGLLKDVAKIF
Sequence of Phl p 7 wild-type (O82040 whole entry): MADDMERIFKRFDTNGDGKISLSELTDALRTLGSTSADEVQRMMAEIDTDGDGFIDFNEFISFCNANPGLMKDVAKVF

B1: 102.1F10 IgE (antibody, V domains shown)
VH: QVQLVQSGAEVRNPGASVKVSCKASGYTFTSYAIHWVRQAPGHRLEWVGRINTDNGNTKYSQKFHGRVALSRDTSASTTYMDLSSLNSEDTAVYYCARAFYYSSGVMFDSWGQGALVTVSS
VL: QSALTQPPSVSGAPGQRVSISCTGGSSNFGAGYDVHWYQQLPATAPKLLIYGNNNRPSGVPDRFSGSKSGTSASLAITGLQAEDEGDYFCQSFDTSLSGWIFGGGTKLTVL
In the experiment with Phl p 7 wild-type, B1 displayed a Kd of 0.17 nM. For the same molecule, the “fold weaker binding than Phl p 7” value with Bet v 4 [1] is 1000 fold. Besides, the binding result with Ole e 3 [2] is listed as “binds”.

B2: 102.1F10 Fab (Fab, V domains shown)
VH: QVQLVQSGAEVRNPGASVKVSCKASGYTFTSYAIHWVRQAPGHRLEWVGRINTDNGNTKYSQKFHGRVALSRDTSASTTYMDLSSLNSEDTAVYYCARAFYYSSGVMFDSWGQGALVTVSS
VL: QSALTQPPSVSGAPGQRVSISCTGGSSNFGAGYDVHWYQQLPATAPKLLIYGNNNRPSGVPDRFSGSKSGTSASLAITGLQAEDEGDYFCQSFDTSLSGWIFGGGTKLTVL
Regarding B2, in the experiment with Bet v 4 [3], the “fold weaker binding than Phl p 7” value turned out to be 1000 fold. Also, in the experiment with Ole e 3 [4], the binding result is on record as “binds”.

A word on the Kd: it is the concentration at which binding is half-saturated. High values mean lower affinity, low ones higher affinity.

The values are drawn from PMC6140506 (Proceedings of the National Academy of Sciences of the …, 2018).
